{
  "source": "patent US11173124B2",
  "about": "“Oral delivery of GLP-1 peptide analogs” (MEDIMMUNE LIMITED, priority 2017, dated 2021)",
  "test_system": "Caco-2 cells",
  "assay": "Caco-2 study, Permeability (%) of lipidated peptides (Example 3)",
  "type": "in vitro ADME, human",
  "conditions": "0.1 mg/mL peptide",
  "excerpt": "The Caco-2 cell line is a continuous cell line of heterogeneous human epithelial colorectal adenocarcinoma cells, which when cultured under specific conditions, become differentiated and polarized such that their phenotype, morphologically and functionally, resembles the enterocytes lining the small intestine. Caco-2 cells express tight junctions, microvilli, and a number of enzymes and transporters that are characteristic of such enterocytes. Caco-2 cells are most commonly used as a tight junction monolayer that provides a physical and biochemical barrier to the passage of drugs and thus serves as an in vitro model of the human small intestinal mucosa to predict the absorption of orally administered drugs. Caco-2 permeability assays were performed by Cyprotex US, LLC (MA, USA) to assess the efficacy of different permeation enhancers. Caco-2 cells were grown on Transwell filters until a transepithelial electric resistance of ˜1000 ohms/cm^2 was achieved. The cells were incubated for three hours with media containing test samples on the apical (top) side of the cell layer, and with blank media on the basolateral (lower) side of the cell layer. Media from the apical and basolateral sides was collected separately after three hours and evaluated for the amount of peptide present on each side. Table 2 gives the permeability coefficient (Papp) of the various test samples, which include the SEQ ID NO:3 GLP-1 peptide in the presence of different excipients.\nA following Caco-2 study was performed to evaluate the permeability of different peptides in the presence of various permeation enhancers. Permeability (%) was calculated by dividing the cumulative amount of molecules transported with the original loading amount. Concentrations of peptides in starting sample and apical and basal solutions after incubation for pre-determined periods were analyzed by HPLC. Sodium chenodeoxycholate at 25 mg/mL effected the highest permeability of each tested peptide (Table 4).",
  "note": "Starred links: 1 amine or outer side, 2 acyl side, 3 side chain; linkers in the order of their positions; H or OH if unused. Non-standard residues stand in square brackets, D forms with d. Groups on a side chain read outwards from the residue. Primed or numbered codes have the meaning given here. *: point of attachment. γGlu = O=C(O)[C@H](CCC(=O)[*:2])N[*:1]; αMeF = C[C@](N)(Cc1ccccc1)C(=O)O; αMeK = C[C@](N)(CCCCN)C(=O)O; Lauroyl = CCCCCCCCCCCC(=O)*; PEG2′ = not defined here; Aib = CC(C)(N)C(=O)O",
  "data": [
    {"substance": "Free-H-[AIB]-EGS-[αMePhe]-TSDVSK[(PEG2)2-γE-Lauroyl]-YLEGEAA-[αMeLys]-EFIAWK[(PEG2)2-γE-Lauroyl]-VEGG-amide (H-H[Aib]EGS[αMeF]TSDVSK([PEG2′-PEG2′-γGlu-Lauroyl])YLEGEAA[αMeK]EFIAWK([PEG2′-PEG2′-γGlu-Lauroyl])VEGG-NH2) [SEQ ID NO: 7]", "values": [
      {"measurement": "Permeability (%)", "setting": "5.0 mg/mL Sodium Chenodeoxycholate", "value": 2.1, "unit": "%"},
      {"measurement": "Permeability (%)", "setting": "25 mg/mL Sodium Chenodeoxycholate", "value": 10.3, "unit": "%"}
    ]}
  ]
}
